{"source": "paper PMC6659731", "molecular_target": "T1, BUD13-2xFLAG (UniProt Q9BRD0 1-619)", "T1 sequence": "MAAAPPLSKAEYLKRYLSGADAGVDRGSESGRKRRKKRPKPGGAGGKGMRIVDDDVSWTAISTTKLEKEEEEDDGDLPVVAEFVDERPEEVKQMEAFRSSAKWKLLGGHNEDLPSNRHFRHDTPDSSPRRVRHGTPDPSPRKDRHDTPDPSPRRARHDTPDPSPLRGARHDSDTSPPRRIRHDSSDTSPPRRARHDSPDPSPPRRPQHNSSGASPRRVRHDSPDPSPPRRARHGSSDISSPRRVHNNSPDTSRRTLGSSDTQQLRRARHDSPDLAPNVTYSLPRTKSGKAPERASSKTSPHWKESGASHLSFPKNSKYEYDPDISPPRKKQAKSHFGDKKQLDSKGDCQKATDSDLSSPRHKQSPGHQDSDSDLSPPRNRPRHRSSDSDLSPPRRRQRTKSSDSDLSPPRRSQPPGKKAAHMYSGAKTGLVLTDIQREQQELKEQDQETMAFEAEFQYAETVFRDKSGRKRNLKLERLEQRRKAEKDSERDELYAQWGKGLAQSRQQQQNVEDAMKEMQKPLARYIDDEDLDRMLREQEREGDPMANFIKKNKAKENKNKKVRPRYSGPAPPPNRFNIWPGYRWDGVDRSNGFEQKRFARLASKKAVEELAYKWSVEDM", "assay": "EMSA", "data": [{"binder": "UAAAGUGCUUAUAGUGCAGGUAGUGU (ssRNA)", "note": "[EMSA miR-20a locus RNA oligo]", "values": [{"measurement": "binding result", "result": "no binding"}]}]}
